Laboratory results from patent US20130280763A1 (IMBA INSTITUT FUR MOLEKULARE BIOTECHNOLOGIE, published 2013).
Positions count from the first letter of the chain named.

T1: HSPC117, Q9Y3I0
T1 chain: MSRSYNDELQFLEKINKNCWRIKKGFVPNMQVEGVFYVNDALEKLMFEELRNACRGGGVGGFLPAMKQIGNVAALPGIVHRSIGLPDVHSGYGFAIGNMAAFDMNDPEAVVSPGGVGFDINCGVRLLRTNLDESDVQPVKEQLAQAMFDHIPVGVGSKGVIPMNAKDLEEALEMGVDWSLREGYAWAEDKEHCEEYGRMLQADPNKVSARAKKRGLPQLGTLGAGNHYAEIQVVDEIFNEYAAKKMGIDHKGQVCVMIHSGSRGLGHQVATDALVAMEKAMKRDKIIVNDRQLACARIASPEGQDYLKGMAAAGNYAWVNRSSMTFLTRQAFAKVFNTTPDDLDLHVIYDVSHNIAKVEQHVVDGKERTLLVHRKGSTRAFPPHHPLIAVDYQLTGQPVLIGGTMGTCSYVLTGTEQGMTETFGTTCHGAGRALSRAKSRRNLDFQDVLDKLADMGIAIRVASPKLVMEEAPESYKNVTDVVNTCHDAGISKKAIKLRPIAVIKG

T2: ASW (human, UniProt Q9BVC5 1-232, limits assumed)
T2 construct: Endogenous protein that co-purifies from cell extract
T2 sequence (looked up): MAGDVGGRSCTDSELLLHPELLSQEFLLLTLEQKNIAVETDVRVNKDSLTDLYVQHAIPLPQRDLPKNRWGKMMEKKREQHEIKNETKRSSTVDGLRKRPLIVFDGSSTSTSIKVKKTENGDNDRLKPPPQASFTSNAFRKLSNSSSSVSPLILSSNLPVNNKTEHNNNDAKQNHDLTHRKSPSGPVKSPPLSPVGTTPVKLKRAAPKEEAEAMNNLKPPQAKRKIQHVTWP

T3: DDX1 (human, UniProt Q92499 1-740)
T3 construct: Endogenous protein that co-purifies from cell extract
T3 sequence (looked up): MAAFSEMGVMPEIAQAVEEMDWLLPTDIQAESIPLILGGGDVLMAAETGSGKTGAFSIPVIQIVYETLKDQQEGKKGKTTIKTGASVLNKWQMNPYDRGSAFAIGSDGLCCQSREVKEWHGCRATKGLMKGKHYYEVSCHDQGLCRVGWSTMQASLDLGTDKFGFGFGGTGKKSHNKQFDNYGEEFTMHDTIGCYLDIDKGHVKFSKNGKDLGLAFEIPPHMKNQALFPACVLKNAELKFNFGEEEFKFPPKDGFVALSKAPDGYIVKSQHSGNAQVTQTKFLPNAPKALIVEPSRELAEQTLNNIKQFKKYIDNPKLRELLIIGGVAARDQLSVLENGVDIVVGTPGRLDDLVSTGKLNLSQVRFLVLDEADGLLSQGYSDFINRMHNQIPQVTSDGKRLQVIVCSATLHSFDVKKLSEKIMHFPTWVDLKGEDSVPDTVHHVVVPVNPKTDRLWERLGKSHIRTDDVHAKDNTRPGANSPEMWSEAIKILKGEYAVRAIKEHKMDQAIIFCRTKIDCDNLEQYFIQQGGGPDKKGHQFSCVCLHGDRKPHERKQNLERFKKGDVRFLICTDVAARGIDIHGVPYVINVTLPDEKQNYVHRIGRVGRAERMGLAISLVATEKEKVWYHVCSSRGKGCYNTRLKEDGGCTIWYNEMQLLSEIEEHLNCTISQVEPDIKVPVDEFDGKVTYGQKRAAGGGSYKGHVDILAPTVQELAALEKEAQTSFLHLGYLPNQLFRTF

T4: recombinant Archease D39A
T4 chain: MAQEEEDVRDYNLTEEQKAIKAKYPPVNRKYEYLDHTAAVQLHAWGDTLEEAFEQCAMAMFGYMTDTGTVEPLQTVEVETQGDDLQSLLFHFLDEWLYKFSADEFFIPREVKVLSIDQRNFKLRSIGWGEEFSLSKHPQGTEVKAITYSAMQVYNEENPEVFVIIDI

T5: recombinant Archease K144A
T5 chain: T4 chain with A39D, K144A

T6: recombinant wild-type Archease
T6 chain: T4 chain with A39D

B1: Archease (other)
chain: AQEEEDVRDYNLTEEQKAIKAKYPPVNRKYEYLDHTADVQLHAWGDTLEEAFEQCAMAMFGYMTDTGTVEPLQTVEVETQGDDLQSLLFHFLDEWLYKFSADEFFIPREVKVLSIDQRNFKLRSIGWGEEFSLSKHPQGTEVKAITYSAMQVYNEENPEVFVIIDI
notes: Endogenous untagged Archease in the cells from which FLAG-HSPC117 was purified
B2: FLAG-DDX1 (protein)
chain: T3 sequence (looked up)
B3: FLAG-tagged Archease (other)
chain: T4 chain with A39D
notes: also called FLAG-Archease; not shown: FLAG tag
B4: FLAG-tagged HSPC117 (enzyme, human, UniProt Q9Y3I0 1-505, looked up)
chain: T1 chain
notes: also called FLAG-HSPC117; FLAG-RTCB; not shown: FLAG tag
B5: CGI-99 (other, human, UniProt Q9Y224 1-244, looked up)
chain: MFRRKLTALDYHNPAGFNCKDETEFRNFIVWLEDQKIRHYKIEDRGNLRNIHSSDWPKFFEKYLRDVNCPFKIQDRQEAIDWLLGLAVRLEYGDNAEKYKDLVPDNSKTADNATKNAEPLINLDVNNPDFKAGVMALANLLQIQRHDDYLVMLKAIRILVQERLTQDAVAKANQTKEGLPVALDKHILGFDTGDAVLNEAAQILRLLHIEELRELQTKINEAIVAVQAIIADPKTDHRLGKVGR
notes: Endogenous protein that co-purifies from cell extract

Columns and labels:
FLAG-tagged HSPC117 [1] = target: B4; assay: FLAG affinity purification at 150 mM NaCl, Coomassie stained gel (FIG. 4A)
Procedure: (§1) A) Coomassie Blue stained preparations of FLAG-tagged Archease and HSPC117 affinity purified at 150 mM NaCl. B) RNA ligase activity assay of FLAG-HSPC117 and FLAG-Archease using pre-cleaved tRNA substrates. Extracts of HEK 293 cells were used as a negative control. * Indicates unspecific products.
(§2) Stable cell lines expressing a FLAG-tagged version of Archease and HSPC117 were generated to perform immuno-precipitations. Fluted FLAG-Archease was assayed for tRNA ligation in parallel with FLAG-HSPC117, which contains the entire tRNA ligase complex. […] RNA ligase activity was only detectable in reactions containing affinity-purified RNA ligase complex but not FLAG-tagged Archease (FIG. 4B).

HSPC117, Q9Y3I0 = target: T1, HSPC117, Q9Y3I0
ASW = target: T2, ASW; assay: FLAG affinity purification at 150 mM NaCl, Coomassie stained gel (FIG. 4A)
Procedure: as §1, §2

DDX1 [2] = target: T3, DDX1; assay: as above
Procedure: as §1, §2

CGI-99 = target: B5; assay: as above
Procedure: as §1, §2

DDX1 [3] = target: T3, DDX1; assay: FLAG affinity purification, co-purifying proteins on a gel (FIG. 1A)
[4] = target: T4, recombinant Archease D39A
[5] = target: T5, recombinant Archease K144A
[6] = target: T6, recombinant wild-type Archease
FLAG-tagged HSPC117 [7] = target: B4; assay: FLAG affinity purification, co-purifying proteins on a gel (FIG. 1A)

B1: no binding (FLAG-tagged HSPC117 [1]).

With B2 the “Xbp1 ligation assay using FLAG-IPs” value (HSPC117, Q9Y3I0) was “ligation activity in FLAG-HSPC117 and FLAG-DDX1 IPs were observed”.

B3: no binding (ASW); no binding (DDX1 [2]); no binding (CGI-99).

B4 was tested, and the binding result (DDX1 [3]) was “binds”, the “ligation of Xbp1 RNA minimal substrates” value [4] was “Addition of recombinant wild-type Archease but not its mutagenized versions strongly stimulated ligation of Xbp1 RNA minimal substrates” and the “ligation of Xbp1 RNA minimal substrates” value [5] was “Addition of recombinant wild-type Archease but not its mutagenized versions strongly stimulated ligation of Xbp1 RNA minimal substrates”. The “ligation activity of affinity purified human tRNA ligase complex (pre-cleaved tRNA substrates, linear intron)” value [6] was “addition of recombinant Archease boosts ligation activity to a great extent (including circularization of the intron)” and the “ligation of Xbp1 RNA minimal substrates” value [6] was “Addition of recombinant wild-type Archease but not its mutagenized versions strongly stimulated ligation of Xbp1 RNA minimal substrates”.

B5: binds (FLAG-tagged HSPC117 [7]).
